Source: the supplement of paper PMC12338614
± gives the uncertainty stated by the source.

B1: library; numbered along this chain (parent)
chain: MEVVDPQQLGMFTEGELMSVGMDTFIHRIDSTEVIYQPRRKRAKLIGKYLMGDLLGEGSYGKVKEVLDSETLCRRAVKILKKKKLRRIPNGEANVKKEIQLLRRLRHKNVIQLVDVLYNEEKQKMYMVMEYCVCGMQEMLDSVPEKRFPVCQAHGYFCQLIDGLEYLHSQGIVHKDIKPGNLLLTTGGTLKISDLGVAEALHPFAADDTCRTSQGSPAFQPPEIANGLDTFSGFKVDIWSAGVTLYNITTGLYPFEGDNIYKLFENIGKGSYAIPGDCGPPLSDLLKGMLEYEPAKRFSIRQIRQHSWFRKKHPPAEAPVPIPPSPDTKDRWRSMTVVPYLEDLHGADEDEDLFDIEDDIIYTQDFTVPGQVPEEEASHNGQRRGLPKAVCMNGTEAAQLSTKSRAEGRAPNPARKACSASSKIRRLSACKQQ

Variants of: B1
Assay: STK11 functional score (HeLa growth suppression), rescaled enrichment; synonymous median = 1, nonsense median = 0 (normalised score)
Settings: with HeLa; variant type: missense
Description: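 Deep mutational scan (TileSeq/POPCode codon randomisation) of full-length codon-optimised STK11 cDNA integrated at a Bxb1 landing pad (AAVS1) in HeLa cells. Restoring functional STK11 suppresses HeLa proliferation. Variant frequencies were measured by NGS before and after about two weeks of growth. The error-corrected enrichment log-ratio was rescaled so that synonymous median = 1 and nonsense median = 0, scores above 1 were compressed, and codon-level and three biological replicate scores were combined; error is the bootstrapped standard error. Scale: synonymous median = 1, nonsense median = 0; below 0.5 = damaging.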

Row | Variant | STK11 functional score
1 | MEVVDPQQLGMFTEGELMSVGMDTFIHRIDSTEVIYQPRRKRAKLIGKYLMGDLLGEGSYGKVKEVLDSETLCRRAVKILKKKKLRRIPNGEANVKKEIQLLRRLRHKNVIQLVDVLYNEEKQKMYMVMEYCVCGMQEMLDSVPEKRFPVCQAHGYFCQLIDGLEYLHSQGIVHKDIKPGNLLLTTGGTLKISDLGVAEALHPFAADDTCRTSQGSPAFQPPEIANGLDTFSGFKVDIWSAGVTLYNITTGLYPFEGDNIYKLFENIGKGSYAIPGDCGPPLSDLLKGMLEYEPAKRFSIRQIRQHSWFRKKHPPAEAPVPIPPSPDTKDRWRSMTVVPYLEDLHGADEDEDLFDIEDDIIYTQDFTVPGQVPEEEASHNGQRRGLPKAVCMNGTEAAQLATKSRAEGRAPNPARKACSASSKIRRLSACKQQ [S401A] | 1.54 ± 0.33
2 | MEVVDPQQLGMFTEGELMSVGMDTFIHRIDSTEVIDQPRRKRAKLIGKYLMGDLLGEGSYGKVKEVLDSETLCRRAVKILKKKKLRRIPNGEANVKKEIQLLRRLRHKNVIQLVDVLYNEEKQKMYMVMEYCVCGMQEMLDSVPEKRFPVCQAHGYFCQLIDGLEYLHSQGIVHKDIKPGNLLLTTGGTLKISDLGVAEALHPFAADDTCRTSQGSPAFQPPEIANGLDTFSGFKVDIWSAGVTLYNITTGLYPFEGDNIYKLFENIGKGSYAIPGDCGPPLSDLLKGMLEYEPAKRFSIRQIRQHSWFRKKHPPAEAPVPIPPSPDTKDRWRSMTVVPYLEDLHGADEDEDLFDIEDDIIYTQDFTVPGQVPEEEASHNGQRRGLPKAVCMNGTEAAQLSTKSRAEGRAPNPARKACSASSKIRRLSACKQQ [Y36D] | 1.27 ± 0.22
3 | MEVVDPQQLGMFTEGELMSVGMDTFIHRIDSTEVIYQPRRKRAKLSGKYLMGDLLGEGSYGKVKEVLDSETLCRRAVKILKKKKLRRIPNGEANVKKEIQLLRRLRHKNVIQLVDVLYNEEKQKMYMVMEYCVCGMQEMLDSVPEKRFPVCQAHGYFCQLIDGLEYLHSQGIVHKDIKPGNLLLTTGGTLKISDLGVAEALHPFAADDTCRTSQGSPAFQPPEIANGLDTFSGFKVDIWSAGVTLYNITTGLYPFEGDNIYKLFENIGKGSYAIPGDCGPPLSDLLKGMLEYEPAKRFSIRQIRQHSWFRKKHPPAEAPVPIPPSPDTKDRWRSMTVVPYLEDLHGADEDEDLFDIEDDIIYTQDFTVPGQVPEEEASHNGQRRGLPKAVCMNGTEAAQLSTKSRAEGRAPNPARKACSASSKIRRLSACKQQ [I46S] | 0.762 ± 0.1
4 | MEVVDPQQLGMFTEGELMSVGMDTFIHRIDSTEVIYQPRRKRAKLIGKYLMGDLLGEGSYGKVKEVLDSETLCRRAVKILKKKKLRRIPNGEANVKKEIQLLRRLRHKNVIQLVDVLYNEEKQKMYMVMEYCVCGMQEMLDSVPEKRFPVCQAHGYFCQLIDGLEYLHSQGIVHKDIKPGNLLLTTGGTLKISDLGVAEALHPFAAWDTCRTSQGSPAFQPPEIANGLDTFSGFKVDIWSAGVTLYNITTGLYPFEGDNIYKLFENIGKGSYAIPGDCGPPLSDLLKGMLEYEPAKRFSIRQIRQHSWFRKKHPPAEAPVPIPPSPDTKDRWRSMTVVPYLEDLHGADEDEDLFDIEDDIIYTQDFTVPGQVPEEEASHNGQRRGLPKAVCMNGTEAAQLSTKSRAEGRAPNPARKACSASSKIRRLSACKQQ [D207W] | 0.239 ± 0.18
5 | MEVVDPQQLGMFTEGELMSVGMDTFIHRIDSTEVIYQPRRKRAKLIGKYLMGDLLGEGSYGKVKEVLDSETLCRRAVKILKKKKLRRIPNGEANVKKEIQLLRRLRHKNVIQLVDVLYNEEKQKMYMVMEYCVCGMQEMLDSVPEKRFPVCQAHGYFRQLIDGLEYLHSQGIVHKDIKPGNLLLTTGGTLKISDLGVAEALHPFAADDTCRTSQGSPAFQPPEIANGLDTFSGFKVDIWSAGVTLYNITTGLYPFEGDNIYKLFENIGKGSYAIPGDCGPPLSDLLKGMLEYEPAKRFSIRQIRQHSWFRKKHPPAEAPVPIPPSPDTKDRWRSMTVVPYLEDLHGADEDEDLFDIEDDIIYTQDFTVPGQVPEEEASHNGQRRGLPKAVCMNGTEAAQLSTKSRAEGRAPNPARKACSASSKIRRLSACKQQ [C158R] | 1.49 ± 0.35
6 | MEVVDPQQLGMFTEGELMSVGMDTFIHRIDSTEVIYQPRRKRAKLIGKYLMGDLLGEGSYGKVKEVLDSETLCRRAVKILKKKKLRRIPNGEANVKKEIQLLRRLRHKNVIQLVDVLYNEEKQKMYMVMEYCVCGMQEMLDSVPEKRFPVCQAHGYFCQLIDGLEYLHSQGIVHKDIKPGNLLLTTGGTLKISDLGVAEALHPFAADDTCRTSQGSPAFQPPEIANGLDTFSGFKVDIWSAGVTLYNITTGLYPFEGDNIYKLFENIGKGSYAIPGDCGPPLSDLLKGMLEYEPAKRFSIRQIRQHSWFRKKHPPAEAPVPIPPSPDSKDRWRSMTVVPYLEDLHGADEDEDLFDIEDDIIYTQDFTVPGQVPEEEASHNGQRRGLPKAVCMNGTEAAQLSTKSRAEGRAPNPARKACSASSKIRRLSACKQQ [T328S] | 1.39 ± 0.18
7 | MEVVDPQQLGMFTEGELMSVGMDTFIHRIDSTEVIYQPRRKRAKLIGKYLMGDLLGEGSYGKVKEVLDSETLCRRAVKILKKKKLRRIPNGEANVKKEIQLLRRLRHKNVIQLVDVLYNEEKQKMYMVMEYCVCGMQEMLDSVPEKRFPVCQAHGYFCQLIDGLEYLHSQGIVHKDIKPGNLLLTTGGTLKISDLGVAEALHPFAADDTCRTSQGSPAFQPPEIANGLDTFSGFKVDIWSAGVTLYNITTGLYPFEGDNIYKLFENIGKGSYAIPGDCGPPLSDLLKGMLEYEPAKRFSIRQIRQHSWFRKKHPPAEAPVPIPPSPDTKDRWRSMTVVPYLEDLHGADEDEDLFDIEDDIIYTQDFTVPGQVPEEEASHYGQRRGLPKAVCMNGTEAAQLSTKSRAEGRAPNPARKACSASSKIRRLSACKQQ [N380Y] | 1.14 ± 0.4
8 | MEVVDPQQLGMFTEGELMSVGMDTFIHRIDSTEVIYQPRRKRAKLIGKYLMGDLLGEGSYGKVKEVLDSETLCRRAVKILKKKKLRRIPNGEANVKKEIQLLRRLRHKNVIQLVDVLYNEEKQKMYMVMEYCVCGMQEMLDSVPEKRFPVCQAHGYFCQLIDGLEYLHSQGIVHKDIKPGNLLLTTGGTLKISDLGVAEALHPFAADDTCRTSQGSPAFQPPEIANGLDTFSGFKVDIWSAGVTLYNITTGLYPFEGDNIYKLFENIGKGSYAIPGDCGPPLSDLLKGMLEYEPAKRFSIRQIRQHSWFRKKHPPAEAPVPIPPSPDTKDRWRSMTVVPYLEDLHGADEDEDLFDIEDDIIYTQDFTVPGQVPEEEASHNGQRRGLPKAVCMNGTEAAQLSTKSRAEGRAPNMARKACSASSKIRRLSACKQQ [P413M] | 1.53 ± 0.17
9 | MEVVDPQQLGMFTEGELMSVGMDTFIHRIDSTEVIYQPRRKRAKLIGKYLMGDLLGEGSYGKVKEVLDSETLIRRAVKILKKKKLRRIPNGEANVKKEIQLLRRLRHKNVIQLVDVLYNEEKQKMYMVMEYCVCGMQEMLDSVPEKRFPVCQAHGYFCQLIDGLEYLHSQGIVHKDIKPGNLLLTTGGTLKISDLGVAEALHPFAADDTCRTSQGSPAFQPPEIANGLDTFSGFKVDIWSAGVTLYNITTGLYPFEGDNIYKLFENIGKGSYAIPGDCGPPLSDLLKGMLEYEPAKRFSIRQIRQHSWFRKKHPPAEAPVPIPPSPDTKDRWRSMTVVPYLEDLHGADEDEDLFDIEDDIIYTQDFTVPGQVPEEEASHNGQRRGLPKAVCMNGTEAAQLSTKSRAEGRAPNPARKACSASSKIRRLSACKQQ [C73I] | 0.566 ± 0.1
10 | MEVVDPQQLGMFTEGELMSVGMDTFIHRIDSTEVIYQPRRKRAKLIGKYLMGDLLGEGSYGKVKEVLDSETLCRRAVKILKKKKLRRIPNGEANVKKEIQLLRRLVHKNVIQLVDVLYNEEKQKMYMVMEYCVCGMQEMLDSVPEKRFPVCQAHGYFCQLIDGLEYLHSQGIVHKDIKPGNLLLTTGGTLKISDLGVAEALHPFAADDTCRTSQGSPAFQPPEIANGLDTFSGFKVDIWSAGVTLYNITTGLYPFEGDNIYKLFENIGKGSYAIPGDCGPPLSDLLKGMLEYEPAKRFSIRQIRQHSWFRKKHPPAEAPVPIPPSPDTKDRWRSMTVVPYLEDLHGADEDEDLFDIEDDIIYTQDFTVPGQVPEEEASHNGQRRGLPKAVCMNGTEAAQLSTKSRAEGRAPNPARKACSASSKIRRLSACKQQ [R106V] | 1.6 ± 0.15
11 | MEVVDPQQLGMFTEGELMSVGMDTFIHRIDSTEVIYQPRRKRAKLIGKYLMGDLLGEGSYGKVKEVLDSETLCRRAVKILKKKKLRRIPNGEANVKKEIQLLRRLRHKNVIQLVDVLYNEEKAKMYMVMEYCVCGMQEMLDSVPEKRFPVCQAHGYFCQLIDGLEYLHSQGIVHKDIKPGNLLLTTGGTLKISDLGVAEALHPFAADDTCRTSQGSPAFQPPEIANGLDTFSGFKVDIWSAGVTLYNITTGLYPFEGDNIYKLFENIGKGSYAIPGDCGPPLSDLLKGMLEYEPAKRFSIRQIRQHSWFRKKHPPAEAPVPIPPSPDTKDRWRSMTVVPYLEDLHGADEDEDLFDIEDDIIYTQDFTVPGQVPEEEASHNGQRRGLPKAVCMNGTEAAQLSTKSRAEGRAPNPARKACSASSKIRRLSACKQQ [Q123A] | 1.11 ± 0.28
12 | MEVVDPQQLGMFTEGELMSVGMDTFIHRIDSTEVIYQPRRKRAKLIGKYLMGDLLGEGSYGKVKEVLDSETLCRRAVKILKKKKLRRIPNGEANVKKEIQLLRRLRHKNVIQLVDVLYNEEKQKMYMVMEYCVCGMQEMLDSVPEKRFPVCQAHGYFCQLIDGLEYLHSQGIVHKDIKPGNLLLTTGGTLKISDLGVAEALHPFAADDTCRTSQGSPAFQPPEIANGLDTFSGFKVDIWSAGVTLYNITTGLYPFEGDNIYKLFENIGKGSYAIPGDCGPPLSDLLKGMLEYEPAKRFSIRQIRQHSWFRKKHPPAEAPVPIPPSPDTKDRWRSMTVVPYLEDLHGADEDEDLFDIEDDIIYTQDFTVPGQVPEEEASHNGQRRGLHKAVCMNGTEAAQLSTKSRAEGRAPNPARKACSASSKIRRLSACKQQ [P387H] | 1.45 ± 0.26
13 | MEVVDPQQLGMFTEGELMSVGMDTFIHRIDSTEVIYQPRRKRAKLIGKYLMGDLLGEGSYGKVKEVLDSETLCRRAVKILKKKKLRRIPNGEANVKKEIQLLRRLRHKNVIQLVDVLYNEEKQKMYMVMEYCVCGMQEMLDSVPEKRFPVCQAHGYFCQLIDGLEYLHSQGIVHKDIKPGNLLLTTGGTLKISDLGVAEALHPFAADDTCRTSQGSPAFQPPEIANYLDTFSGFKVDIWSAGVTLYNITTGLYPFEGDNIYKLFENIGKGSYAIPGDCGPPLSDLLKGMLEYEPAKRFSIRQIRQHSWFRKKHPPAEAPVPIPPSPDTKDRWRSMTVVPYLEDLHGADEDEDLFDIEDDIIYTQDFTVPGQVPEEEASHNGQRRGLPKAVCMNGTEAAQLSTKSRAEGRAPNPARKACSASSKIRRLSACKQQ [G227Y] | 1.46 ± 0.42
14 | MEVVDPQQLGMFTEGELMSVGMDTFIHRIDSTEVIYQPRRKRAKLIGKYLMGDLLGEGSYGKVKEVLDSETLCRRAVKILKKKKLRRIPNGEANVKKEIQLLRRLRHKNVIQLVDVLYNEEKQKMYMVMEYCVCGMQEMLDSVPEKRFPVCQAHGYFCQLIDGLEYLHSQGIVHKDIKPGNLLLTTGGTLKISDLGVAEALHPFAADDTCRTSQGSPAFQPPEIANGLDTFSGFKVDIWSAGVTLYNITTGLYPFEGDNIYKLFENIGKGSYAIPGDCGPPLSDLLKGMLEYEPAKRFSIRQIRQHSWFRKKHPPAEAPVPIPPSPDTKDRWRSMTVVPYLEDLHGADEDEDLFDIEDDIIYTQDFTVPGQVPEEEASHNGQRRGLPKAVCMNGTEAAQLSTKSRAEGRAPNPARKACSAESKIRRLSACKQQ [S421E] | 1.56 ± 0.28
